The target of test [1] is récepteur à l'insuline IR exprimé sur des cellules d'insectes Sf9 (baculovirus) (UniProt P06213). Nature of the test: FACScan on Sf9 insect cells expressing IR (baculovirus), anti-mouse FITC secondary; Tableau 1, column Cellules IR +.
The target in test [2] is IGF-IR exprimé sur des cellules d'insectes Sf9 (baculovirus) (UniProt P08069). Nature of the test: FACScan on Sf9 insect cells expressing IGF-IR (baculovirus), anti-mouse FITC secondary; Tableau 1, column Cellules IGF1R +.
The target of test [3] is récepteur à l'insuline IR exprimé sur des cellules d'insectes Sf9 (baculovirus) (UniProt P06213). Nature of the test: FACScan on Sf9 insect cells expressing IR (baculovirus), secondary antibody alone; Tableau 1, column Cellules IR +.
The target of test [4] is IGF-IR exprimé sur des cellules d'insectes Sf9 (baculovirus) (UniProt P08069). Nature of the test: FACScan on Sf9 insect cells expressing IGF-IR (baculovirus), secondary antibody alone; Tableau 1, column Cellules IGF1R +.

For “AcM commercial αIR3 (anti-IGF-IR) (antibody)”, the values for the MFI (Moyenne de l'intensité de fluorescence) in test [1] and in test [2] were 32 and 35, respectively.

On to Anti-souris FITC (antibody), for which the MFI (Moyenne de l'intensité de fluorescence) in test [3] is 13; in test [4], 9.

The values are drawn from patent publication EP1798242B1.
